{
  "source": "paper PMC3696110",
  "about": "“Hsp70 Oligomerization Is Mediated by an Interaction between the Interdomain Linker and the Substrate-Binding Domain” (PLoS ONE, 2013)",
  "key": {"[1]": {"experiment": "Thermal denaturation monitored by far-UV CD", "assay_type": "physicochemical, human", "protocol": "Protein structural stability was analyzed by monitoring the CD signal at 222 nm upon thermal denaturation. Thermal runs were performed from 5 to 90 °C at a rate of 1 °C. min^-1. Data points were acquired every 0.1 °C with a response time of 2 s and a bandwidth of […]. After thermal denaturation, each protein sample was cooled to the starting temperature, and a second denaturation curve recorded in order to analyse the degree of reversibility of the denaturation process. Analysis of the thermal unfolding curves was performed assuming a three-state unfolding model."}, "refolded SBD641": {"tested_on": "refolded SBD641", "experiment": "Fluorescence titration of dansyl-NR peptide binding, refolded protein", "set-up": "species or system human", "conditions": "refolded vs native SBD641, fluorescence titration", "protocol": "The interaction between the different Hsp70 variants and the NR peptide was studied in 50 mM Tris buffer at pH 7.4, with 150 mM KCl, and 5 mM MgCl2 using fluorescence spectroscopy by titrating different concentrations of chaperone into a solution containing 2 µM dansyl-NR peptide (N-terminally labeled; Genemed Synthesis Inc., San Antonio, TX, USA) after incubating the mixtures for 1 h at 25°C. The concentration of dansyl-NR peptide was calculated using an extinction coefficient at 327 nm of 4300 M^-1.cm^-1 [39]. The fluorescence emission spectrum of each sample was recorded from 400 to 630 nm after excitation at 330 nm, and the data reported correspond to the average intensity at the maximum emission wavelength of two different samples for which ten spectra were recorded. The increase in fluorescence signal was plotted as a function of chaperone concentration (Figure S2), and analyzed assuming single-site binding using the following equation:\nΔF=ΔFmaxΘL=ΔFmax/2LT[(PT+LT+Kd)−(PT+LT+Kd)^2−4PTLT] (1)\nwhere ΘL is the fraction of bound ligand, ΔF is the increase in fluorescence intensity observed at a given concentration of Hsp70 variant, ΔF max is the increase in fluorescence at saturation, L T and P T are the total ligand and protein concentration respectively, and K d is the apparent dissociation constant of the complex. […]"}},
  "note": "Several values for one entry are separate records, joined by “and”; a condition that tells them apart may be missing. Equal values may be shown once.",
  "data": [
    {"substance": "SBD641: truncated human Hsp70 (384-641), full-length SBD with interdomain linker", "values": [
      {"measurement": "∆Hm, 1st transition", "setting": "[1]; CD 222 nm, 20 µM protein, 7 mM Tris pH 7.4, 170 mM KCl, 5 mM MgCl2, three-state fit (C-term two-state), SE of fit", "value": "49.4 ± 3.3", "unit": "kcal/mol"},
      {"measurement": "∆Hm, 2nd transition", "setting": "[1]; CD 222 nm, 20 µM protein, 7 mM Tris pH 7.4, 170 mM KCl, 5 mM MgCl2, three-state fit, SE of fit", "value": "53.3 ± 1.2", "unit": "kcal/mol"},
      {"measurement": "Tm, 1st transition", "setting": "[1]; CD 222 nm, 5 to 90 °C at 1 °C/min, 20 µM protein, 7 mM Tris pH 7.4, 170 mM KCl, 5 mM MgCl2, three-state fit (C-term two-state), SE of fit", "value": "45.6 ± 0.4", "unit": "°C"},
      {"measurement": "Tm, 2nd transition", "setting": "[1]; CD 222 nm, 5 to 90 °C at 1 °C/min, 20 µM protein, 7 mM Tris pH 7.4, 170 mM KCl, 5 mM MgCl2, three-state fit, SE of fit", "value": "73.1 ± 0.1 °C and 73.1 ± 0.2 °C"},
      {"measurement": "Degree of irreversibility of overall protein thermal denaturation", "setting": "[1]; far-UV CD", "value": "ca. 20%"},
      {"measurement": "Reversibility of thermal unfolding", "setting": "[1]; far-UV CD, second denaturation curve after cooling", "value": "is not"},
      {"measurement": "Affinity of refolded SBD641 for substrate", "setting": "refolded SBD641", "value": "same affinity as the native protein"}
    ]}
  ]
}
